Assay [1] deals with T1, Human CLDN18.2 (human).
T1 construct: the cell line is named under assay; also called hCLDN18.2; human CLDN18.2 antigen
Briefly: flow cytometry, NUGC4-hCLDN18.2 cells. On the technique in general: Flow cytometry measures light scatter and fluorescence of single cells or particles in a stream.
Description: (§1) NUGC4 and NUGC4-hCLDN18.2 cells were cultured, digested with pancreatin and centrifuged to collect cells. The cells were collected and resuspended in buffer (PBS+1% FBS) at 1×10⁴ cells/well in a 96-well plate at 100 μL per well. Then the mixture was centrifuged at 350×g for 5 min, and the supernatant was removed.

The target in assay [2] is T1, Human CLDN18.2. Briefly: flow cytometry, NUGC4 cells (endogenous CLDN18.2).
Description: as §1
The next assay concerns the target T2, murine CD3 antigen (murine, UniProt P22646 22-108, limits assumed).
T2 construct: also called Mouse CD3ϵ
Description: SPR (Biacore T200), murine CD3 antigen on CM5 chip, 1:1 fit. On the technique in general: SPR reads the build-up and loss of mass on a sensor chip optically.

Assay [3] has as its target T3, human CD3 antigen (human, UniProt P07766 23-126).
T3 construct: also called Human CD3ϵ
Description: detection method the same as in Examples 2-8 (Biacore).

Assay [4] deals with T1, Human CLDN18.2. Description: cell-based or functional assay.
The target in another assay is T4, Human CLDN18.1 (human, UniProt P56856 1-261).
T4 construct: also called hCLDN18.1
Description: flow cytometry, 293T-hCLDN18.1 cells.

For assay [5], the target named is T1, Human CLDN18.2. Description: flow cytometry, NUGC4-hCLDN18.2 cells. This is another data set of the same source.
Description: as §1
Assay [6] deals with T3, human CD3 antigen. Description: SPR (Biacore T200), human CD3 antigen on CM5 chip.
Description: (§2) After the detection was completed, data fitting was carried out on the result pattern by adopting Biacore T200 Evaluation Software in a 1:1 binding fitting mode to obtain an equilibrium dissociation constant (KD).
The target in assay [7] is T1, Human CLDN18.2. Briefly: flow cytometry, NUGC4 cells (endogenous CLDN18.2). The source holds these as a separate data set.

The term EC50 denotes the midpoint of the concentration-response curve. Broadly, the Kd is the constant that tells how readily two partners part at equilibrium.

T2 sequence (P22646 22-108 limits assumed): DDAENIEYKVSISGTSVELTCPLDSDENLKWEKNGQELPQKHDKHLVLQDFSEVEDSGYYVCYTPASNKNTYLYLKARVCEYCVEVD
Description for murine CD3 antigen: as §2

B1: bispecific antibody SY1 (bispecific antibody, human IgG1, kappa)
light: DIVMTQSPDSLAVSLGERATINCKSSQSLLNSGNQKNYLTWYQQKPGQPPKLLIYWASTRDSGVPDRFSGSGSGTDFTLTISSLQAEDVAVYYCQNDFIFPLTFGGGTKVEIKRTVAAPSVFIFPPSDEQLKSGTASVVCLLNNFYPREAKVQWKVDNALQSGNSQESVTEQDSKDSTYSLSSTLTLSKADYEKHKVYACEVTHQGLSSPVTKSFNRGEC
heavy: QVQLQESGPGLVKPSETLSLTCTVSGFSLTRYGVSWIRQPPGKGLEWIGVIWGEGNTNYNPSLKSRVTISKDSSKSQVSLKLSSVTAADTAVYYCARVNFGNALDYWGQGTLVTVSSASTKGPSVFPLAPSSKSTSGGTAALGCLVKDYFPEPVTVSWNSGALTSGVHTFPAVLQSSGLYSLSSVVTVPSSSLGTQTYICNVNHKPSNTKVDKKVEPKSCDKTHTCPPCPAPPVAGPSVFLFPPKPKDTLMISRTPEVTCVVVDVSHEAPEVQFNWYVDGVEVHNAKTKPREEQFNSTFRVVSVLTVVHQDWLNGKEYKCKVSNKGLPAPIEKTISKTKGQPREPQVYTLPPCRDELTKNQVSLWCLVKGFYPSDIAVEWESNGQPENNYKTTPPVLDSDGSFFLYSKLTVDKSRWQQGNVFSCSVMHEALHNHYTQKSLSLSPGK
chain: EVQLVESGGGLVQPGKSLKLSCEASGFTFSGYGMHWVRQAPGRGLESVAYITSSSINIKYADAVKGRFTVSRDNAKNLLFLQMNILKSEDTAMYYCARFDWDKNYWGQGTMVTVSSGGGGSGGGGSGGGGSDIQMTQSPSSLPASLGDRVTINCQASQDISNYLNWYQQKPGKAPKLLIYYTNKLADGVPSRFSGSGSGRDSSFTISSLESEDIGSYYCQQYYNYPWTFGPGTKLEIKGRGRGSDKTHTCPPCPAPPVAGPSVFLFPPKPKDTLMISRTPEVTCVVVDVSHEAPEVQFNWYVDGVEVHNAKTKPREEQFNSTFRVVSVLTVVHQDWLNGKEYKCKVSNKGLPAPIEKTISKTKGQPREPQVCTLPPSRDELTKNQVSLSCAVKGFYPSDIAVEWESNGQPENNYKTTPPVLDSDGSFFLVSKLTVDKSRWQQGNVFSCSVMHEALHNHYTQKSLSLSPGK
notes: YBODY structure: anti-CLDN18.2 Fab arm (2C6.9) and single chain anti-mouse CD3 scFv (2C11)-Fc
As for B1, the half-maximal effective concentration (EC50) with Human CLDN18.2 [1] was 125 nM; with Human CLDN18.2 [2], 304 nM. The molecule further came in with a Kd with murine CD3 antigen of 79.3 nM.

B2: bispecific antibody SCS1 (bispecific antibody, human IgG1, kappa)
light: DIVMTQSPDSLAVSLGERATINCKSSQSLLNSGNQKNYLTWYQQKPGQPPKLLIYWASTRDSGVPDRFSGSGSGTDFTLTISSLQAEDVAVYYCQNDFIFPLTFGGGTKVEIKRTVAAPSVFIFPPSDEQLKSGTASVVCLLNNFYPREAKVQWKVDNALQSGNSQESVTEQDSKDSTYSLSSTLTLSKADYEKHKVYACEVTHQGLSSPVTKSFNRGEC
heavy 1: B1 heavy
heavy 2: QVQLQESGPGLVKPSETLSLTCTVSGFSLTRYGVSWIRQPPGKGLEWIGVIWGEGNTNYNPSLKSRVTISKDSSKSQVSLKLSSVTAADTAVYYCARVNFGNALDYWGQGTLVTVSSASTKGPSVFPLAPSSKSTSGGTAALGCLVKDYFPEPVTVSWNSGALTSGVHTFPAVLQSSGLYSLSSVVTVPSSSLGTQTYICNVNHKPSNTKVDKKVEPKSCDKTHTAPAPAPAPAPAPAPAPEVQLVESGGGLVQPGKSLKLSCEASGFTFSGYGMHWVRQAPGRGLESVAYITSSSINIKYADAVKGRFTVSRDNAKNLLFLQMNILKSEDTAMYYCARFDWDKNYWGQGTMVTVSSGGGGSGGGGSGGGGSDIQMTQSPSSLPASLGDRVTINCQASQDISNYLNWYQQKPGKAPKLLIYYTNKLADGVPSRFSGSGSGRDSSFTISSLESEDIGSYYCQQYYNYPWTFGPGTKLEIKGGGGSDKTHTCPPCPAPPVAGPSVFLFPPKPKDTLMISRTPEVTCVVVDVSHEAPEVQFNWYVDGVEVHNAKTKPREEQFNSTFRVVSVLTVVHQDWLNGKEYKCKVSNKGLPAPIEKTISKTKGQPREPQVCTLPPSRDELTKNQVSLSCAVKGFYPSDIAVEWESNGQPENNYKTTPPVLDSDGSFFLVSKLTVDKSRWQQGNVFSCSVMHEALHNHYTQKSLSLSPGK
notes: CSBODY structure: two 2C6.9 Fab arms; second heavy chain (first heavy entry) and first heavy chain with anti-mouse CD3 scFv (2C11) between CH1 and Fc2; also called SCSI
Turning to B2, the EC50 with Human CLDN18.2 [1] is 25.4 nM; with Human CLDN18.2 [2], 29.1 nM. The molecule further gave an equilibrium dissociation constant (Kd) with murine CD3 antigen of 94.1 nM.

B3: Bispecific antibody molecule YCS4 (bispecific antibody, human IgG1, kappa)
light 1: not shown
light 2: not shown
heavy 1: B1 heavy
heavy 2: EVQLVESGGGLVKPGGSLRLSCAASGFSFSNSAMSWVRQAPGKGLEWVSTISSGDSYTYYADSVKGRFTISRDNAKNSLYLQMNSLRAEDTAVYYCARQGYGNALDYWGQGTLVTVSSASTKGPSVFPLAPSSKSTSGGTAALGCLVKDYFPEPVTVSWNSGALTSGVHTFPAVLQSSGLYSLSSVVTVPSSSLGTQTYICNVNHKPSNTKVDKKVEPKSCDKTHTAPAPAPAPAPAPAPAPQVQLVESGGGVVQPGRSLRLSCAASGFTFSTYAMNWVRQAPGKGLEWVARIRSKYNNYATYYADSVKDRFTISRDDSKNTLYLQMNSLRAEDTAVYYCARHGNFGNSYVSWFAYWGQGTLVTVSSGGGGSGGGGSGGGGSQTVVTQEPSLTVSPGGTVTLTCRSSTGAVTTSNYANWVQQKPGQAPRGLIGGTNKRAPGVPARFSGSLLGGKAALTLSGVQPEDEAEYYCALWYSNLWVFGGGTKVEIKGGGGSDKTHTCPPCPAPPVAGPSVFLFPPKPKDTLMISRTPEVTCVVVDVSHEAPEVQFNWYVDGVEVHNAKTKPREEQFNSTFRVVSVLTVVHQDWLNGKEYKCKVSNKGLPAPIEKTISKTKGQPREPQVCTLPPSRDELTKNQVSLSCAVKGFYPSDIAVEWESNGQPENNYKTTPPVLDSDGSFFLVSKLTVDKSRWQQGNVFSCSVMHEALHNHYTQKSLSLSPGK
notes: CS4 with the first heavy/light chain variable regions replaced by 1E9.2; order of chains: first light, second light, second heavy, first heavy
With B3, in the assay with human CD3 antigen [3], the binding result was “binds”.

B4: bispecific antibody Y17 (bispecific antibody, human IgG1, kappa)
light: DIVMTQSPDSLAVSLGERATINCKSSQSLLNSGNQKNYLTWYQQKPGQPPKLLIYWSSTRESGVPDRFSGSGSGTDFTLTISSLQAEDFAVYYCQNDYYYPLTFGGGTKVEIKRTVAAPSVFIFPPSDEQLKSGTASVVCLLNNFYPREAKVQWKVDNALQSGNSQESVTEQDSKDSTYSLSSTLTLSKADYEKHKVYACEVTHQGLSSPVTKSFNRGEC
heavy: EVQLVESGGGLVKPGGSLRLSCAASGFSFSNSAMSWVRQAPGKGLEWVSTISSGDSYTYYADSVKGRFTISRDNAKNSLYLQMNSLRAEDTAVYYCARQGYGNALDYWGQGTLVTVSSASTKGPSVFPLAPSSKSTSGGTAALGCLVKDYFPEPVTVSWNSGALTSGVHTFPAVLQSSGLYSLSSVVTVPSSSLGTQTYICNVNHKPSNTKVDKKVEPKSCDKTHTCPPCPAPPVAGPSVFLFPPKPKDTLMISRTPEVTCVVVDVSHEAPEVQFNWYVDGVEVHNAKTKPREEQFNSTFRVVSVLTVVHQDWLNGKEYKCKVSNKGLPAPIEKTISKTKGQPREPQVYTLPPCRDELTKNQVSLWCLVKGFYPSDIAVEWESNGQPENNYKTTPPVLDSDGSFFLYSKLTVDKSRWQQGNVFSCSVMHEALHNHYTQKSLSLSPGK
chain: QVQLVESGGGVVQPGRSLRLSCAASGFTFSTYAMNWVRQAPGKGLEWVGRIRSKYNNYATYYADSVKDRFTISRDDSKNTLYLQMNSLRGEDTAVYYCARHGNFGNSYVSWFAYWGQGTLVTVSSGGGGSGGGGSGGGGSQTVVTQEPSLTVSPGGTVTLTCRSSTGAVTTSNYANWVQQKPGQAPRGLIGGTNKRAPGVPARFSGSLLGGKAALTLSGVQPEDEAEYTCALWYSNLWVFGGGTKVEIKGRGRGSDKTHTCPPCPAPPVAGPSVFLFPPKPKDTLMISRTPEVTCVVVDVSHEAPEVQFNWYVDGVEVHNAKTKPREEQFNSTFRVVSVLTVVHQDWLNGKEYKCKVSNKGLPAPIEKTISKTKGQPREPQVCTLPPSRDELTKNQVSLSCAVKGFYPSDIAVEWESNGQPENNYKTTPPVLDSDGSFFLVSKLTVDKSRWQQGNVFSCSVMHEALHNHYTQKSLSLSPGK
notes: YBODY structure: anti-CLDN18.2 Fab arm (1E9.2) and second monomer anti-CD3 scFv (Di6-2)-Fc
On to B4, for which, in the assay with Human CLDN18.2 [4], the “EC50 value for killing effect on NUGC4-hCLDN18.2 cells” value was under 0.01 nM and the “EC50 value for killing effect on NUGC4 cells” value was under 0.01 nM. Besides, in the assay with Human CLDN18.1, the binding result was “no binding”. Moreover, the EC50 with Human CLDN18.2 [5] is under 50 nM. In the assay with human CD3 antigen [6], the Kd is under 15 nM. In the assay with Human CLDN18.2 [7], this molecule came in with an EC50 of under 100 nM.

(Values after patent publication US20230192903A1 (published 2023).)
